Measured values published in patent publication US7410949 (Hoffmann-La Roche, dated 2008).
*1 amine or outer side, *2 acyl side, *3 side chain or, on linkers, in order; H or OH if unused. Bridges are numbered along the chain shown (N, C = ends). [ ]: non-standard residue; d: D form. Cms = N-(5-O-carboxymethyl)-serotonin, O=C(COc1ccc2[nH]cc(CCN[*:1])c2c1)[*:2]; Nle = CCCC[C@H](N)C(=O)O

T1: human NPY2 receptor (human, UniProt P49146 1-381)
T1 sequence (looked up): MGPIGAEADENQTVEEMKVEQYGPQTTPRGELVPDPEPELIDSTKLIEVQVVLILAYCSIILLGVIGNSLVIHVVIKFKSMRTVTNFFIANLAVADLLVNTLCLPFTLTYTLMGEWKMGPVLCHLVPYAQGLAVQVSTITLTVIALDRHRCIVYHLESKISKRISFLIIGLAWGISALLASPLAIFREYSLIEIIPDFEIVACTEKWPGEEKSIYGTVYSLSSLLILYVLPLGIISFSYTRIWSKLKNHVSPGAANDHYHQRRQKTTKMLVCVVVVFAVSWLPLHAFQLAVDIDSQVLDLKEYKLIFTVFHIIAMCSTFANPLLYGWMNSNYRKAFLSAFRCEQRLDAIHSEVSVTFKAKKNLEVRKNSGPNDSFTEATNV


Columns and labels:
Assay in all cases: cell-based or functional assay
Y4R = molecular target: Y4R
Y1R = molecular target: Y1R
human NPY2 receptor = molecular target: T1, human NPY2 receptor

Y1R, sequence (P25929 whole entry): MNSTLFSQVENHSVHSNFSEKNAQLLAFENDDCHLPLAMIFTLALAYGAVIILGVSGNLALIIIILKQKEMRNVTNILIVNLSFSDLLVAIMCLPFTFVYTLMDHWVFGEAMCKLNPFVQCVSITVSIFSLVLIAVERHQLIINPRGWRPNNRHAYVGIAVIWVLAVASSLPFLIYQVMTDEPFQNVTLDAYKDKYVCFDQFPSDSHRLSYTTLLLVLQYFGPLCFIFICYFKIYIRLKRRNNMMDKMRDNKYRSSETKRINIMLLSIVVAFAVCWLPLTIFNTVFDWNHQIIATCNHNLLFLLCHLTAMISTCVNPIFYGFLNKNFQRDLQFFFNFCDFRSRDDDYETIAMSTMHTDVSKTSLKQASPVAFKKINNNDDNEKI

Row | Binder | Y4R EC50(nM) FLIPR (Y4R) [nM] | Y1R EC50(nM) FLIPR (Y1R) [nM] | Y2R EC50(nM) FLIPR (human NPY2 receptor) [nM] | Y2R IC50(nM) cAMP (human NPY2 receptor) [nM]
1 | IKRHYLNLVTRQRY ((D)Arg at PYY position 33 (residue 9 of the second part); Pqa moiety between the two parts; C-terminal amide) [H-Ile-Lys-Pqa-Arg-His-Tyr-Leu-Asn-Leu-Val-Thr-(D)Arg-Gln-Arg-Tyr-NH2] | > 5000 | > 5000 |  | 
2 | IKRHYLNLVTRQRY ((D)Val at PYY position 31 (residue 7 of the second part); Pqa moiety between the two parts; C-terminal amide) [H-Ile-Lys-Pqa-Arg-His-Tyr-Leu-Asn-Leu-(D)Val-Thr-Arg-Gln-Arg-Tyr-NH2] | > 5000 | > 5000 |  | 
3 | IKGRHYLNLVTRQRY (Cms moiety between the two parts; C-terminal amide) [H-Ile-Lys-Gly-Cms-Arg-His-Tyr-Leu-Asn-Leu-Val-Thr-Arg-Gln-Arg-Tyr-NH2] |  |  | 4.16 | 0.085
4 | IKRHYLNLVTRQRY (N-methyl Arg at PYY position 35 (residue 11 of the second part); Pqa moiety between the two parts; C-terminal amide) [H-Ile-Lys-Pqa-Arg-His-Tyr-Leu-Asn-Leu-Val-Thr-Arg-Gln-(NMe)Arg-Tyr-NH2] |  |  | 18.9 | 0.417
5 | IKRHYLNLVTRQRY ((D)Leu at PYY position 30 (residue 6 of the second part); Pqa moiety between the two parts; C-terminal amide) [H-Ile-Lys-Pqa-Arg-His-Tyr-Leu-Asn-(D)Leu-Val-Thr-Arg-Gln-Arg-Tyr-NH2] | > 5000 | > 5000 |  | 
6 | Ac-I[Nle][Cms]RHYKNLVDRQRY-NH2 (lactam 7-11; SMILES CCCC[C@H](NC(=O)[C@@H](NC(C)=O)[C@@H](C)CC)C(=O)NCCc1c[nH]c2ccc(OCC(=O)N[C@@H](CCCNC(=N)N)C(=O)N[C@@H](Cc3c[nH]cn3)C(=O)N[C@@H](Cc3ccc(O)cc3)C(=O)N[C@H]3CCCCNC(=O)C[C@@H](C(=O)N[C@@H](CCCNC(=N)N)C(=O)N[C@@H](CCC(N)=O)C(=O)N[C@@H](CCCNC(=N)N)C(=O)N[C@@H](Cc4ccc(O)cc4)C(N)=O)NC(=O)[C@H](C(C)C)NC(=O)[C@H](CC(C)C)NC(=O)[C@H](CC(N)=O)NC3=O)cc12) [Cyclo Lys28-Aspu32 Ac-Ile-Nle-Cms-Arg-His-Tyr-Lys-Asn-Leu-Val-Asp-Arg-Gln-Arg-Tyr-NH2] | > 5000 | > 5000 | 146 | 32.2
